Measured values taken from PMC5712780, “Ymr210wp leads to the accumulation of phospholipids and steryl esters in yeast” (Bioinformation, 2017).

Experiments:
Test in all cases: p-nitrophenyl ester hydrolysis assay, Michaelis-Menten fit
Assay type in all cases: biochemical, Saccharomyces cerevisiae
[1] = substrate: CC(=O)Oc1ccc([N+](=O)[O-])cc1; details: optimum pH 7.5 and 30°C (kinetic conditions not stated); text b29 prints error ±2.95; pH 7.5; 30.0 °C
Excerpt: (§1) p-nitrophenyl ester hydrolysis assay, Michaelis-Menten fit on Ymr210wp

[2] = substrate: CCCC(=O)Oc1ccc([N+](=O)[O-])cc1; details: optimum pH 7.5 and 30°C (kinetic conditions not stated); pH 7.5; 30.0 °C
Excerpt: as §1

[3] = substrate: CCCCCCCCCCCCCCCC(=O)Oc1ccc([N+](=O)[O-])cc1; details: optimum pH 8.5 and 45°C (kinetic conditions not stated); pH 8.5; 45.0 °C
Excerpt: as §1

B1: Ymr210wp (Saccharomyces cerevisiae S288C) (protein)
chain: MRLKELLPNFLIVHQEVPEDPIAFKSTDKRENENKEITIPELIDTKVPELADGATDTLYGLLVNGHLQTAYGSFRHFDNIYKVQYKRMIIKYPHGGEGTVDFAVNGRSTKRRKVEKEYVPTSQPVFNGNLKRRYSYYSPDDPKLNSDDAKPMLIILHGLTGGSRESYVRAIVHEITTKYDFEACVFNARGCCYSAITTPLLYNGGWTNDIRYCVNDLRKRFPNRKFYMMGFSLGASIMTNYLGEESDRTKIECAISVSNPFDLYNSAYFINSTPMGSRFYSPALGHNLLRMVRNHLSTLEENPDFKDVIEKHLKKIRTVRQFDNLLTGPMFGYKNAEEYYKNASSYKRIPGIRTPFIALHAQDDPIVGGDLPIDQIKSNPYTLLLETSTGGHVGWFKDRSGRRWYAEPLCRFLKIFHDEITVKGLKPDLENVQLPDPNCEPIATTFRAN
notes: YMR210w cloned in pYES2/CT, His-tagged, expressed in S. cerevisiae BY4741, Ni-NTA purified
B1 was tested, and the Km [1] was 11.51 ± 1.09 mM, the Km [2] was 7.28 ± 1.61 mM and the Km [3] was 13.19 ± 1.03 mM.
